From publication PMC4895335

Biological target: T1, Ms4022 (TetR family regulator) (Mycobacterium smegmatis mc2 155) (UniProt A0QZH0)
T1 sequence: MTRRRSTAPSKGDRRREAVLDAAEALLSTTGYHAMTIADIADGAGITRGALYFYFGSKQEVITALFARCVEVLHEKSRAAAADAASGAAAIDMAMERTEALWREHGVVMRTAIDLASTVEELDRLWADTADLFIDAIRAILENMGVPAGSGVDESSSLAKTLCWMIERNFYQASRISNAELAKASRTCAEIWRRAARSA
Test: EMSA
Settings: EMSA: 50 mM Tris-HCl pH 7.5, 10 mM MgCl2, 50 mM NaCl, 4 C 30 min, 5% native PAGE in 0.5x TBE at room temperature; footprinting: binding as in EMSA, DNase I at …

| Sequence | binding |
| --- | --- |
| ACGCCGATACTTGACGGAGTGCTTATTTTTTTCGACACTGTGCTTATTGAGATGGCGGGGCATGGAGGCAGCGATGCGAACAATCTTGATCGCCGGAACGAGCGGCGACTTCCGGCGAGCATTCGCCGAGGCGGTTGCGCCTTGGCGTGCACACAGTCGCATCCCCGACCTCGCCGACGCCGCTGTCGGCCCATCCGGGAAGGACCATCCGTGACGAAATCCA (double strand) [Ms4022p s1] | binds |
| GCCTTACGGCACAACGACTTCGGGCTGGCGGCCCGGCGTCGTCGCATCGCGCACGTCCGGTCGGACGCCCCCAGTCGGCCCCTCCGGACTAGGCGTCCACGCCGATACTTGACGGAGTGCTTATTTTTTTCGACACTGTGCTTATTGAGATGGCGGGGCATGGAGGCAGCGATGCGAACAATCTTGATCGCCGGAACGAGCGGCGACTTCCGGCGAGCATTCGCCGAGGCGGTT (double strand) [Ms4022p s2] | binds |
| GTCGATCTCCGTCGGGTCAACGGGCGAACTTCCCTGTCACGGCAGTCAGGTTAGCACGAATCCACACAGTGCTGATTTTTATCAGCTTGTTGTCGGCGACGCGGTCACCCGTTTCGGTCGCGAGGTGTCTGATCGGTCGCCATCGGTTATGGCCTTACGGCACAACGACTTCGGGCTGGCGGCCCGGCGTCGTCGCATCGCGCACGTCCGGTCGGACGCCCCCAGTCGGCCCCTCCGGACTAGGCGTCCACGCCGATACTTGACGGAGT (double strand) [Ms4022p s3] | binds |
